Assay results from article PMC6784197.

Columns and labels:
<EGFR> Ha-Lw = experiment: SPR; monovalent (affinity) set-up: antibody captured via anti-hFc on CM5 chip, huEGFR ECD as analyte 19-300 nM; Biacore T200, HBS-P+ pH 7.4, 25 °C; 1:1 Langmuir model
<EGFR> Hb-Lw = experiment: as above
<EGFR> Hw-La = experiment: as above
<Her2/neu> Ha-Lw = experiment: SPR; monovalent (affinity) set-up: antibody captured via anti-hFc on CM5 chip, huHer2 ECD as analyte 19-300 nM; Biacore T200, HBS-P+ pH 7.4, 25 °C; 1:1 Langmuir model
Sequence of <Her2/neu> Ha-Lw (heavy, as listed by the source, chain 1 of 2): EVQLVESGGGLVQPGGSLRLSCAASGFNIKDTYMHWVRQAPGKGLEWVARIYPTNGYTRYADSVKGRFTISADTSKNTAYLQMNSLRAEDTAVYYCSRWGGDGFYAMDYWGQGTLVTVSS
Sequence of <Her2/neu> Ha-Lw (light, as listed by the source, chain 2 of 2): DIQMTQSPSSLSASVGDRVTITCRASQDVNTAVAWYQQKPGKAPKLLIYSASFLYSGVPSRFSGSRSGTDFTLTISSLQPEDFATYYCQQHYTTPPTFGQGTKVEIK

<Her2/neu> Hb-Lw = experiment: as above
Sequence of <Her2/neu> Hb-Lw (heavy, as listed by the source, chain 1 of 2): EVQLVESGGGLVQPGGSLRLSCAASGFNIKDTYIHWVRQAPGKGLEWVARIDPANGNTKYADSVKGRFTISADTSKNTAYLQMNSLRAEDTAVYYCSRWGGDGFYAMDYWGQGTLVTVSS

<Her2/neu> Hg-Lg = experiment: as above
Sequence of <Her2/neu> Hg-Lg (heavy, as listed by the source, chain 1 of 2): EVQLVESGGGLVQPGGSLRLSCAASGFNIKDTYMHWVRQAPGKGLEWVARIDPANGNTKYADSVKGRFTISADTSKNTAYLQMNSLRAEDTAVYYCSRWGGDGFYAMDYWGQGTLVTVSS
Sequence of <Her2/neu> Hg-Lg (light, as listed by the source, chain 2 of 2): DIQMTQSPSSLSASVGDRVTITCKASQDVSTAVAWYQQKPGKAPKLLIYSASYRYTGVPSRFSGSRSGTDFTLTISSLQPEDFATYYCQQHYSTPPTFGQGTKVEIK

<Her2/neu> Hg-Lw = experiment: as above

## huEGFR ECD (from UniProt P00533 25-645) (domain or fragment)
<EGFR> Ha-Lw
  Kd: 0.73 nM
<EGFR> Hb-Lw
  Kd: 0.66 nM
<EGFR> Hw-La
  Kd: 3.5 nM

## huHer2 ECD (from UniProt P04626 23-652) (domain or fragment)
<Her2/neu> Ha-Lw
  Kd: 2.1 nM
<Her2/neu> Hb-Lw
  Kd: 390 nM
<Her2/neu> Hg-Lg
  Kd: 390 nM
<Her2/neu> Hg-Lw
  Kd: 340 nM
